Reference: patent US11340215B2, “Screening method of anticancer agent focused on function of HP1 and evaluation system” (JAPANESE FOUNDATION FOR CANCER RESEARCH, priority 2016, dated 2022)

Assays:
Aurora B [1] = target: T1, Aurora B (Homo sapiens, UniProt Q96GD4); assay: Kinase activity of fractions immunoprecipitated with anti-HP1α-pS92 antibody or INCENP antibody; assay type: biochemical; design: endogenous in cells; conditions: addition of inhibitor
Protocol: The cells in the mitotic phase were incubated in a solution, which was prepared by adding 1 U/μl OmniCleave Endonuclease (manufactured by Epicentre) in the above immunoprecipitation buffer, at 4° C. for 30 minutes. The solution was centrifuged at 4° C. and 15,000 rpm for 10 minutes and the supernatant was further centrifuged. The resultant supernatant was used for immunoprecipitation. Protein A-Sepharose (manufactured by Bio-Rad) having an antibody bound thereto, was allowed to react with cell extracts and subjected to immunoprecipitation. The sample obtained by immunoprecipitation was subjected to the immunoblotting using peroxidase-labeled Mouse TrueBlot ULTRA or Rabbit TrueBlot (manufactured by eBioscience) as a secondary antibody.
The kinase assay was carried out by adding a substrate in a kinase buffer (20 mM Tris-HCl, 50 mM MgCl2, 100 mM NaCl, 20 μM ATP, pH7.5) and 0.2 mCi/ml[γ^− ^32P]ATP. […] Phosphorylation was analyzed by Typhoon scanner (manufactured by GE Healthcare) and a liquid scintillation counter.
Next, we will describe that the binding of HP1 to CPC is necessary for activating Aurora B. Immunoprecipitation was carried out with anti-HP1α-pS92 antibody and INCENP antibody and proteins constituting CPC and subtypes of HP1 were analyzed by immunoblotting (FIG. 5H, left panel). […]
Target sequence in this assay (Q96GD4 whole entry): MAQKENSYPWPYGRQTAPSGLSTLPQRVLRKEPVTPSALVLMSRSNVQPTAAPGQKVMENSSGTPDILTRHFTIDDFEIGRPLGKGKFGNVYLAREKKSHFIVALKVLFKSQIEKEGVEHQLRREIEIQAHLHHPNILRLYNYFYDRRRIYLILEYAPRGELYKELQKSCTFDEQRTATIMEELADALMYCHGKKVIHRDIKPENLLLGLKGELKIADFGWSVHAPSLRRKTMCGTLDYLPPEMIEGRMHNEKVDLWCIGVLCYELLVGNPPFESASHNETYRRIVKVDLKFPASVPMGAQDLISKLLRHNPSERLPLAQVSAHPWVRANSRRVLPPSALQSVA
Target sequence in this assay (Q9NQS7 whole entry partner): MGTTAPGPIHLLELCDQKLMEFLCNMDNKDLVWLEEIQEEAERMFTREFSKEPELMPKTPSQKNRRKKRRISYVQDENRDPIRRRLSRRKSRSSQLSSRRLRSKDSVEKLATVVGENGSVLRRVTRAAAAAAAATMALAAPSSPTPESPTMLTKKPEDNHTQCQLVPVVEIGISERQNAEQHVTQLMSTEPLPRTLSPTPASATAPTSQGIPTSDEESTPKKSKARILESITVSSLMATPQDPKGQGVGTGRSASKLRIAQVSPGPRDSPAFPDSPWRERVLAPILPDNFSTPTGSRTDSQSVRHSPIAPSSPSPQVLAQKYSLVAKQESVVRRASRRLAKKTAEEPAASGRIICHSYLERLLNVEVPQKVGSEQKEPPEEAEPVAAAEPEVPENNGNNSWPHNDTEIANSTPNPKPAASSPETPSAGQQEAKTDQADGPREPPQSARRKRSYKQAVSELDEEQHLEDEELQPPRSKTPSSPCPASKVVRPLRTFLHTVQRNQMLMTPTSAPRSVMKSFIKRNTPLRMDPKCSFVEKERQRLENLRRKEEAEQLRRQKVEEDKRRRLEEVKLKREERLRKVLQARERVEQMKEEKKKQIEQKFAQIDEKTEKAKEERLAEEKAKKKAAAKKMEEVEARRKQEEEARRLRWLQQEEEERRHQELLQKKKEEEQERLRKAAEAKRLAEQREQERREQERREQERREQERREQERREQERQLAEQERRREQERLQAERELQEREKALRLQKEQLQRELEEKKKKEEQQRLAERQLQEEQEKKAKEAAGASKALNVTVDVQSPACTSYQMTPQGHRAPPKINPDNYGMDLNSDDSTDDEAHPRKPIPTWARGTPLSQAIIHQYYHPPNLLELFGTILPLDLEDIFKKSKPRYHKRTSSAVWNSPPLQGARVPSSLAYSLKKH
Target sequence in this assay (O15392 whole entry partner): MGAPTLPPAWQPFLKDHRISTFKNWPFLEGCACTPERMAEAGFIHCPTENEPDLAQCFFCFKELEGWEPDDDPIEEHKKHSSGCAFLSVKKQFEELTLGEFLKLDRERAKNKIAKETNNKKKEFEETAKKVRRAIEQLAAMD
Target sequence in this assay (Q53HL2 whole entry partner): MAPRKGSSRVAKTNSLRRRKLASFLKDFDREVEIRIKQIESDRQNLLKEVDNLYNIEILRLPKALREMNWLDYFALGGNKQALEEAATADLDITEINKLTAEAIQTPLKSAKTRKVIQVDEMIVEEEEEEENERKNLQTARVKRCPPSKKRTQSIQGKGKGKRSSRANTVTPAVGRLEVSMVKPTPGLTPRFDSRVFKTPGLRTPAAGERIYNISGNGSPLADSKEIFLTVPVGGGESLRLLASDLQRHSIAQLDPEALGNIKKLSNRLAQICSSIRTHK

Aurora B [2] = target: T1, Aurora B; assay: Immunostaining of metaphase cells with anti-HP1α-pS92 antibody; assay type: cell-based; design: endogenous in cells; conditions: FIG. 5D
Protocol: (§1) Cells were cultured on a cover glass and immobilized with 4% paraformaldehyde in PHEM buffer solution (60 mM PIPES, 25 mM HEPES, 10 mM EGTA, 2 mM MgCl2, pH7.0) or PBS, at room temperature. Cells were treated with the above buffer solution containing 0.2 to 1.0% Triton X-100, and blocked with a 3% BSA-containing buffer. Images were obtained by AxiolmagerM1 miacroscope (manufactured by Zeiss) equipped with CoolSNAP HQ camera (manufactured by Photometrics) operated by MetaMorph software (manufactured by MDS Analytical Technologies). The intensity of fluorescence was analyzed by ImageJ software (National Institute of Health).
It was shown that the anti-HP1α-pS92 antibody sensitively detects phosphorylated HP1α even if it is used in immunostaining (FIGS. 5D, E). Cells of the interphase, cells of the metaphase, cells of the metaphase where the expression of HP1α was depleted by siRNA and cells of the metaphase where the activity of Aurora B was suppressed by ZM447439 were immunostained with an anti-HP1α-pS92 antibody (FIG. 5D). Only the metaphase cells used as the control were stained. In the interphase cells, cells where the expression of HP1α was depleted and cells where the activity of Aurora B was suppressed, phosphorylated HP1α was not detected.
Target sequence in this assay (Q96GD4 whole entry): as the sequence (Q96GD4 whole entry) above
Target sequence in this assay (Q9NQS7 whole entry partner): as the sequence (Q9NQS7 whole entry partner) above
Target sequence in this assay (O15392 whole entry partner): as the sequence (O15392 whole entry partner) above
Target sequence in this assay (Q53HL2 whole entry partner): as the sequence (Q53HL2 whole entry partner) above

Aurora B [3] = target: T1, Aurora B; assay: Phosphorylation of Aurora B substrates in HeLa cells, fluorescence microscopy with phospho-specific antibodies; assay type: cell-based; design: endogenous in cells; host or cells: HeLa
Protocol: as §1
Target sequence in this assay (Q96GD4 whole entry): as the sequence (Q96GD4 whole entry) above
Target sequence in this assay (Q9NQS7 whole entry partner): as the sequence (Q9NQS7 whole entry partner) above
Target sequence in this assay (O15392 whole entry partner): as the sequence (O15392 whole entry partner) above
Target sequence in this assay (Q53HL2 whole entry partner): as the sequence (Q53HL2 whole entry partner) above
Next, activation of Aurora B was analyzed based on degree of phosphorylation of a substrate. HeLa cells were transfected with siRNA of all subtypes of HP1 to inhibit expression of all HP1 subtypes. […] The cells were immobilized and then analyzed by a fluorescence microscope using an antibody recognizing phosphorylation of serine at position 10 of histone H3 (H3-pS10, 6G3, manufactured by Cell Signaling Technology) (FIG. 4B); an antibody recognizing phosphorylation of serine at position 44 of Hec1 (Hec1-pS44, Non Patent Literature 8); an Hec1 antibody (9G3.23, manufactured by Novus Biologicals) (FIG. 4C); and an antibody recognizing phosphorylation of serine at position 100 of Dsn1 (Dsn-pS100, Non Patent Literature 9) (FIG. 4D).

Aurora B [4] = target: T1, Aurora B; assay: In vitro kinase assay with recombinant INCENP, Aurora B and HP1; assay type: biochemical; conditions: for activation of Aurora B: recombinant proteins, 1 μM HP1
Protocol: The kinase assay was carried out by adding a substrate in a kinase buffer (20 mM Tris-HCl, 50 mM MgCl2, 100 mM NaCl, 20 μM ATP, pH7.5) and 0.2 mCi/ml[γ^− ^32P]ATP. As the substrate, GST-Hec1 (1-80) or recombinant histones H3 (manufactured by New England Biolas) was used. Twenty nM INCENP and 120 nM GST-Aurora B were reacted in the presence or absence of 1 μM HP1 at 30° C. for 20 minutes and the reaction was terminated by Laemmli sample buffer. Phosphorylation was analyzed by Typhoon scanner (manufactured by GE Healthcare) and a liquid scintillation counter.
Using recombinant proteins of INCENP, Aurora B and HP1α, in vitro kinase assay was carried out (FIG. 6C). […] Accordingly, it was shown that physical binding of HP1 to INCENP is required for activation of Aurora B, and that HP1 has an allosteric effect on Aurora B.
Then, enzyme kinetics analysis of Aurora B was carried out. […] Further, analysis of proteins binding to GST-Aurora B was carried out by the GST pull down assay. As a result, the amount of Hec1 binding to GST-Aurora B increased in the conditions where HP1 can bind to INCENP. […] Accordingly, binding of HP1α to INCENP is required for activating Aurora B.
Target sequence in this assay (Q96GD4 whole entry): as the sequence (Q96GD4 whole entry) above
Target sequence in this assay (Q9NQS7 whole entry partner): as the sequence (Q9NQS7 whole entry partner) above

HP1α = target: T2, HP1α (Homo sapiens, UniProt P45973); assay: Binding assay of INCENP (positions 121 to 270) and HP1α by isothermal titration calorimetry
T2 construct: His tag or GST tag
T2 sequence (P45973 whole entry): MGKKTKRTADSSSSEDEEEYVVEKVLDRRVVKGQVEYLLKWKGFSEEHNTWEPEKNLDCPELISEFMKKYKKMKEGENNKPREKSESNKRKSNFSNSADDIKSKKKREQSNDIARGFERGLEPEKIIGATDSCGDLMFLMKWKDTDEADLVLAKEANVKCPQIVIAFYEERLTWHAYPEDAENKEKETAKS
Protocol: Wild type HP1α and a region at positions 121 to 270 in INCENP (SEQ ID NO: 8, INCENP WT) were used in the binding assay. The region at positions 121 to 270 in INCENP contains an important motif […], required for binding to HP1. A mutant (SEQ ID NO: 9, INCENP 3A) was obtained by substituting three amino acids in this region with alanine residues and used as a control. A dissociation constant thereof was determined by isothermal titration calorimetry. As an isothermal titration calorimetry apparatus, any device may be used. For example, using MicroCal iTC2000 system (manufactured by GE healthcare biosciences), measurement may be carried out, in accordance with a conventional method.
The above peptides, to which His tag or GST tag was attached, were subjected to isothermal titration calorimetry to determine a dissociation constant. Note that, the dissociation constant was computationally obtained based on average values of 5 experiments.

COc1cc2c(Nc3ccc(NC(=O)c4ccccc4)cc3)ncnc2cc1OCCCN1CCOCC1 [ZM447439]
kinase activities of the fractions obtained by immunoprecipitation with the anti-HP1α-pS92 antibody and the INCENP antibody (Aurora B [1]): inhibited | phosphorylated HP1α detected by immunostaining (Aurora B [2]): not detected | Phosphorylation by Aurora B of substrates (H3, Hec1, Dsn1) (Aurora B [3]; FIGS. 4B to 4D legend): suppressed | effect on phosphorylation of Hec1 and Dsn1 (Aurora B [3]; HeLa cells, low concentration (0.4 μM)): suppressive effect equal to the effect produced by depletion of HP1

HP1 mutant I165E: HP1 mutant which cannot form a dimer, cannot bind to INCENP
activation of Aurora B (Aurora B [4]): does not activate

HP1α: recombinant heterochromatin protein 1 subtype α
reaction rate of substrate phosphorylation by Aurora B per unit time (Aurora B [4]; enzyme kinetics analysis, FIG. 6G): significantly increases | activation of Aurora B (Aurora B [4]): highly activate

HP1β: heterochromatin protein 1 subtype β
activation of Aurora B (Aurora B [4]): highly activate

HP1γ: heterochromatin protein 1 subtype γ
activation of Aurora B (Aurora B [4]): highly activate

B1: INCENP 3A: mutant (SEQ ID NO: 9) obtained by substituting three amino acids of the P×V×I motif with alanine residues (protein)
chain: LRRVTRAAAAAAAATMALAAPSSPTPESPTMLTKKPEDNHTQCQLVAVAEAGISERQNAEQHVTQLMSTEPLPRTLSPTPASATAPTSQGIPTSDEESTPKKSKARILESITVSSLMATPQDPKGQGVGTGRSASKLRIAQVSPGPRDSP
modifications: HP1 binding site mutant
binding to HP1 (HP1α): does not bind to HP1

B2: INCENP WT: region at positions 121 to 270 in INCENP (SEQ ID NO: 8), with His tag or GST tag (protein, listed as Homo sapiens)
chain: LRRVTRAAAAAAAATMALAAPSSPTPESPTMLTKKPEDNHTQCQLVPVVEIGISERQNAEQHVTQLMSTEPLPRTLSPTPASATAPTSQGIPTSDEESTPKKSKARILESITVSSLMATPQDPKGQGVGTGRSASKLRIAQVSPGPRDSP
modifications: His tag or GST tag
Binding (HP1α; binding to wild type HP1α, isothermal titration calorimetry, His tag or GST tag peptides): ◯
